Residue numbers refer to the chain shown, from its start. Names and notes keep the numbering of the source.
B1: BDG11.001 (clone 11.4C_11.001 as soluble human IgG1) (antibody, V domains shown)
VH: EVQLVQSGAEVKKPGESLKISCKGSGYSFTSYWIGWVRQMPGKGLEWMGIIYPSDSDTRYSPSFQGQVTISADKSISTAYLQWSSLKASDTAMYYCARYPNYGAFDIWGQGTMVTVSS
VL: EIVLTQSPATLSLSPGERATLSCRASQSVWSYLAWYQQKPGQAPRLLIYDASNRATGIPARFSGSGSGTDFTLTISSLEPEDFAVYYCQQYFYWGWPFGQGTKLEIK
notes: as the VH of m6 (clone 11.4C_11.001); the same heavy chain stands in 11.003 (PDB 7Z2M); changes are against the VH of AAL160; human IgG1 heavy-chain constant region, from the plasmid pSF-CMV-HuIgG1_HC; as the VL of m6 (clone 11.4C_11.001); has W30, Y93, W94; the light chain of 11.003 in PDB 7Z2M differs from it at position 30 (Phe for Trp); as in the light chain of 11.003 in PDB 7Z2M; IgG1; also …
B2: clone 11.1_C5 scFv displayed on yeast (scFv, V domains shown)
VH: B1 VH with P100T, A104N
VL: B1 VL with S31W, Y91G, G95P
notes: as the VH of m1 (AAL160) with changes; three repeats of the G4S linker between VH and VL; as the VL of m1 (AAL160) with changes; First-generation clone from library A_11.1; source: yeast surface display, EBY-100, induced with galactose
B3: clone 11.4_C13 scFv displayed on yeast (scFv, V domains shown)
VH: B1 VH with P100T, G103E
VL: B1 VL with Y91S, G95P, W96F
notes: as the VH of m1 (AAL160) with changes; has no T100P; three repeats of the G4S linker between VH and VL; as the VL of m1 (AAL160) with changes; source: yeast surface display, EBY-100, induced with galactose
B4: clone 11.1_C3 scFv displayed on yeast (scFv, V domains shown)
VH: B1 VH with P100T, A104N
VL: B1 VL with Y91G, G95P
notes: as the VH of m1 (AAL160) with changes in CDR H3; numbers count on the scFv; three repeats of the G4S linker between VH and VL; as the VL of m1 (AAL160) with changes in CDR L1 and L3; First-generation clone from library A_11.1; nine mutations against AAL160, eight in H3 and L3 and one in L1; source: yeast surface display, EBY-100, induced with galactose
B5: AAL160 scFv displayed on yeast (scFv, V domains shown)
VH: B1 VH with P100T, Y102W, G103D
VL: B1 VL with W30S, Y91R, F92S, Y93N, G95M, W96F
notes: VH of AAL160; also held by the deposited AAL160 Fab structures; three repeats of the G4S linker between VH and VL; VL of AAL160; scFv in heavy to light-chain orientation; VH 99% identical to IGHV5-51*01, VL 100% identical to IGKV3-11*01; also called template antibody; anti-IL-1β antibody; source: yeast surface display, EBY-100, induced with galactose
B6: clone 11.4_C12 scFv displayed on yeast (scFv, V domains shown)
VH: B1 VH
VL: B1 VL with G95S
notes: as the VH of m1 (AAL160) with changes in CDR H3; three repeats of the G4S linker between VH and VL; as the VL of m1 (AAL160) with changes; has W30, Y93 and W94 (light-chain numbering); also called 114_R5_C12; source: yeast surface display, EBY-100, induced at 37 to 40 °C
B7: BDG11.003 (human IgG1) (antibody, V domains shown)
VH: B1 VH
VL: B1 VL with W30F
notes: as the VH of m7 (BDG11.001); human IgG1 heavy-chain constant region, from the plasmid pSF-CMV-HuIgG1_HC; as the VL of m7 (BDG11.001) with W30F; that 11.003 is the W30F variant follows from the sentence that 11.003 has Phe30 in L1 where AAL160 has Ser; light-chain numbering; IgG1; seven mutations against AAL160; source: Expi-CHO, transfected, purified from the supernatant (protein A beads); …
B8: BDG11.004 (human IgG1) (antibody, V domains shown)
VH: B1 VH
VL: B1 VL with W30S
notes: as the VH of m7 (BDG11.001); human IgG1 heavy-chain constant region, from the plasmid pSF-CMV-HuIgG1_HC; as the VL of m7 (BDG11.001) with one substitution; light-chain numbering; as in the light chain of 11.003 in PDB 7Z2M; IgG1; single mutant of BDG11.001; source: Expi-CHO, transfected, purified from the supernatant (protein A beads); copies: 2 + 2
B9: BDG11.007 (human IgG1) (antibody, V domains shown)
VH: B1 VH
VL: B1 VL with Y93N
notes: as for B8
B10: BDG11.006 (human IgG1) (antibody, V domains shown)
VH: B1 VH
VL: B1 VL with W94N
notes: as for B8
B11: AAL160 Fab (Fab, V domains shown)
VH: B1 VH with P100T, Y102W, G103D
VL: B1 VL with W30S, Y91R, F92S, Y93N, G95M, W96F
notes: Fab heavy-chain fragment of AAL160 after papain digestion; light chain of AAL160; also called parent AAL160 Fab; source: papain digestion of AAL160 at 37 °C, Fab purified over Protein A Sepharose Fast Flow

target: T1, human IL-17A (recombinant) (human, UniProt Q16552); assay: SPR; Biacore T100, CM5 chip; tested antibody captured on anti-human IgG to about 500 RU; IL-17A analyte in PBS 0.05% tween, two- or three-fold dilutions, multi-cycle kinetics; details: both partners purified
T1 construct: human interleukin-17A; also called hIL-17A; source: cell assay: recombinant human IL-17A (Novartis Basel, Switzerland)
T1 sequence (Q16552 24-155): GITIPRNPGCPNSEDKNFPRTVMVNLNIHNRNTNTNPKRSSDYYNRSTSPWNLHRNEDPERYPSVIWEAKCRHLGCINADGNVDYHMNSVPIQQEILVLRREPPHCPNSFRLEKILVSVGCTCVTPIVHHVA

| Binder | Kd [nM] |
| --- | --- |
| B1 | 0.75 |

target: T2, biotinylated human IL-17A (Homo sapiens, UniProt Q16552, biotin (site not stated)); assay: flow cytometry on cells; scFv displayed on yeast EBY-100; incubated with soluble antigen (biotinylated human IL-17A in PBS 0.1% BSA, 1 h), labelled with anti-Myc-FITC (expression) and streptavidin-APC (binding); details: one partner purified
T2 construct: human interleukin-17A; also called hIL-17A; biotinylated IL-17A
T2 sequence (Q16552 24-155): as above

| Binder | binding result |
| --- | --- |
| B2 | binds |
| B3 | binds |
| B4 | binds |
| B5 | no binding |
| B6 | binds |

target: T3, IL-1β (used in the yeast display FACS analysis) (Homo sapiens, UniProt P01584); assay: as above; details: one partner purified
T3 construct: interleukin-1 beta; Species is said only of the IL-1β of the crystal (human)

| Binder | binding result |
| --- | --- |
| B2 | no binding |
| B4 | no binding |
| B5 | binds |

target: T4, human IL-2 (Homo sapiens, UniProt P60568); assay: ELISA; polyspecificity assay; plates coated with 5 μg/ml antigen, blocked with PBS 0.5% BSA; 100 nM antibody 1 h at RT; anti-human Fc-HRP; details: both partners purified
T4 construct: human interleukin-2; also called hIL-2
T4 sequence (P60568 21-153): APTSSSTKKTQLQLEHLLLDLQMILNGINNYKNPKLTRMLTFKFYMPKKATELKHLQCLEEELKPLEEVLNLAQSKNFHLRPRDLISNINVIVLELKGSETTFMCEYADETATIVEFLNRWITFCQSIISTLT

| Binder | binding result |
| --- | --- |
| B1 | no binding (tested: 100 nM antibody) |
| B7 | no binding (tested: 100 nM antibody) |
| B8 | no binding (tested: 100 nM antibody) |
| B9 | no binding (tested: 100 nM antibody) |
| B10 | no binding (tested: 100 nM antibody) |

target: T5, BSA (Bos taurus, UniProt P02769); assay: as above; details: both partners purified
T5 construct: bovine serum albumin, printed only as BSA; a BSA coating is not described
T5 sequence (P02769 25-607): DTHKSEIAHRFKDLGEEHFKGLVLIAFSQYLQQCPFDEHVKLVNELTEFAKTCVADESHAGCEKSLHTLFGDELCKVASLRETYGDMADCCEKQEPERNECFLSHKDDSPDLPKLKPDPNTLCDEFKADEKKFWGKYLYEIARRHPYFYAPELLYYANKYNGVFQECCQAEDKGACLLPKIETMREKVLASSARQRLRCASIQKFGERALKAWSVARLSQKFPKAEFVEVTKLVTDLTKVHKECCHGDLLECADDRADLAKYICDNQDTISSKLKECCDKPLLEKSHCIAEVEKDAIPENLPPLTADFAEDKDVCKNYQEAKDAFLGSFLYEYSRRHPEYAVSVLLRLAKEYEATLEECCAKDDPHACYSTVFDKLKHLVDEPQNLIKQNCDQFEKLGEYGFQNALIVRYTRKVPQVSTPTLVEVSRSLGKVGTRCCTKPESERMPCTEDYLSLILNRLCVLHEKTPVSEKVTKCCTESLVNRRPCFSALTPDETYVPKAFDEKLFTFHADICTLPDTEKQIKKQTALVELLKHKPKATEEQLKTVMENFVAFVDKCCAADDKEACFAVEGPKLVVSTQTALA

| Binder | binding result |
| --- | --- |
| B1 | no binding (tested: 100 nM antibody) |
| B7 | no binding (tested: 100 nM antibody) |
| B8 | no binding (tested: 100 nM antibody) |
| B9 | no binding (tested: 100 nM antibody) |
| B10 | no binding (tested: 100 nM antibody) |

target: T6, insulin (Homo sapiens (assumed), UniProt P01308); assay: as above; details: both partners purified
T6 construct: insulin B chain; insulin A chain
T6 sequence (P01308 whole entry, looked up): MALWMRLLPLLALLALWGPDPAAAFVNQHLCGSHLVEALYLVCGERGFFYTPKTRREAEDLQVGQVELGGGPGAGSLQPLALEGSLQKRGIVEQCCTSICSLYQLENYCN

| Binder | binding result |
| --- | --- |
| B1 | no binding (tested: 100 nM antibody) |
| B7 | no binding (tested: 100 nM antibody) |
| B8 | no binding (tested: 100 nM antibody) |
| B9 | no binding (tested: 100 nM antibody) |
| B10 | no binding (tested: 100 nM antibody) |

target: T7, hTNFR2 (Homo sapiens, UniProt P20333); assay: as above; details: both partners purified
T7 construct: human TNF receptor 2
T7 sequence (P20333 23-461): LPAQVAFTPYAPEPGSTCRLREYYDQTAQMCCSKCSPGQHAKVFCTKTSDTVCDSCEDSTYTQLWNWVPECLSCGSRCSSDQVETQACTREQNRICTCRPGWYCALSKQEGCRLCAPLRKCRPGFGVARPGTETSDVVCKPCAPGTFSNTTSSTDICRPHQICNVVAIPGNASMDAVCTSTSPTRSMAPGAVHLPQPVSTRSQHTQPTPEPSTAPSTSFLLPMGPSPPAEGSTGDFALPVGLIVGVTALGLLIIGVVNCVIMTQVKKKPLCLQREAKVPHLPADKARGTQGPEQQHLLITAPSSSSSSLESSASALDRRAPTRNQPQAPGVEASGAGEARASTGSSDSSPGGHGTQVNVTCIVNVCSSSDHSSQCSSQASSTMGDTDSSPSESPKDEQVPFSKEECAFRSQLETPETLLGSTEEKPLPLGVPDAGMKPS

| Binder | binding result |
| --- | --- |
| B1 | no binding (tested: 100 nM antibody) |
| B7 | no binding (tested: 100 nM antibody) |
| B8 | no binding (tested: 100 nM antibody) |
| B9 | no binding (tested: 100 nM antibody) |
| B10 | no binding (tested: 100 nM antibody) |

target: T8, recombinant human IL-1β (Homo sapiens); assay: crystal structure; AAL160 Fab with a 1.5-fold excess of recombinant human IL-1β, complex purified by SEC; 3.30 Å; details: both partners purified
T8 construct: human interleukin-1 beta; also called IL-1b

| Binder | binding result |
| --- | --- |
| B11 | binds |

target: T1, human IL-17A (recombinant); assay: cell-based or functional assay; details: not given

| Binder | IC50 of inhibition of IL-17A dependent IL-6 secretion by BJ fibroblasts (1 nM IL-17A; blocks IL-17A binding to IL-17RA on the cells) [nM] |
| --- | --- |
| B1 | 4.8 |
| B7 | 33.9 |
| B8 | 163 |
| B9 | 286 |
| B10 | 50.5 |

Reference: PMC10542344 (Communications Biology, 2023)
